Results from patent US20240190987A1 (TIGATX, published 2024).

target: T1, Ab0786; assay: BLI +indinavir
T1 construct: Fab, His-Tag, Avi-Tag; Ab0785 + HC I50M+S58N; also called LS2A R3M1 Fab; biotinylated-Ab0786

Row | Kd | Binder
1 | 79 nM | Ab1071 (Fab, V domains shown, also called LS2B R5M2 Fab) VH: EVQLVESGGGLVQPGGSLRLSCAASGFDFSSYSIHWVRQAPGKGLEWVASISPYYGSTYYADSVKGRFTISADTSKNTAYLQMNSLRAEDTAVYYCARYYEWYKYDLYAGSLGFDYWGQGTLVTVSS VL: DIQMTQSPSSLSASVGDRVTITCRASQSVSSAVAWYQQKPGKAPKLLIYSASSLYSGVPSRFSGSRSGTDFTLTISSLQPEDFATYYCQQGGYSLITFGQGTKVEIK

target: T2, Ab0787; assay: BLI 1-pt +indinavir
T2 construct: Fab, His-Tag, Avi-Tag; Ab0785 + HC I50M; also called LS2A R3M2; Ab787

Row | Binder | Kd
2 | Ab0941 (antibody, V domains shown, also called LS2B R6M7) VH: EVQLVESGGGLVQPGGSLRLSCAASGFDFSSYSIHWVRQAPGKGLEWVASISPYYGATYYADSVKGRFTISADTSKNTAYLQMNSLRAEDTAVYYCARYYEWYKYDLYLGSLGFDYWGQGTLVTVSS VL: DIQMTQSPSSLSASVGDRVTITCRASQSVSSAVAWYQQKPGKAPKLLIYSASSLYSGVPSRFSGSRSGTDFTLTISSLQPEDFATYYCQQGGYSLITFGQGTKVEIK | 49 nM
3 | Ab0953 (antibody, V domains shown, also called LS2B R6M22) VH: EVQLVESGGGLVQPGGSLRLSCAASGFDFSSYSIHWVRQAPGKGLEWVASISPYYGSTYYADSVKGRFTISADTSKNTAYLQMNSLRAEDTAVYYCARYYEWYKYDLYLGSLGFDYWGQGTLVTVSS VL: DIQMTQSPSSLSASVGDRVTITCRASQSVSSAVAWYQQKPGKAPKLLIYSASSLYSGVPSRFSGSRSGTDFTLTISSLQPEDFATYYCQQGAYSLITFGQGTKVEIK | 50 nM
4 | Ab0937 (antibody, V domains shown, also called LS2B R6M3) VH: EVQLVESGGGLVQPGGSLRLSCAASGFDFSSYSIHWVRQAPGKGLEWVASASPYYGSTYYADSVKGRFTISADTSKNTAYLQMNSLRAEDTAVYYCARYYEWYKYDLYLGSLGFDYWGQGTLVTVSS VL: DIQMTQSPSSLSASVGDRVTITCRASQSVSSAVAWYQQKPGKAPKLLIYSASSLYSGVPSRFSGSRSGTDFTLTISSLQPEDFATYYCQQGGYSLITFGQGTKVEIK | 42 nM

Now from value to binder:

Row | Kd | Binder
5 | 100 nM | Ab0944 (antibody, V domains shown, also called LS2B R6M10) VH: EVQLVESGGGLVQPGGSLRLSCAASGFDFSSYSIHWVRQAPGKGLEWVASISPYYGSTYYADSVKGRFTISADTSKNTAYLQMNSLRAEDTAVYYCARYYEWYKYALYLGSLGFDYWGQGTLVTVSS VL: DIQMTQSPSSLSASVGDRVTITCRASQSVSSAVAWYQQKPGKAPKLLIYSASSLYSGVPSRFSGSRSGTDFTLTISSLQPEDFATYYCQQGGYSLITFGQGTKVEIK
6 | 42 nM | Ab0958 (antibody, V domains shown, also called LS2B R6M27) VH: EVQLVESGGGLVQPGGSLRLSCAASGFDFSSYSIHWVRQAPGKGLEWVASISPYYGSTYYADSVKGRFTISADTSKNTAYLQMNSLRAEDTAVYYCARYYEWYKYDLYLGSLGFDYWGQGTLVTVSS VL: DIQMTQSPSSLSASVGDRVTITCRASQSVSSAVAWYQQKPGKAPKLLIYSASSLYSGVPSRFSGSRSGTDFTLTISSLQPEDFATYYCQQGGYSLIAFGQGTKVEIK
7 | 40 nM | Ab0939 (antibody, V domains shown, also called LS2B R6M5) VH: EVQLVESGGGLVQPGGSLRLSCAASGFDFSSYSIHWVRQAPGKGLEWVASISAYYGSTYYADSVKGRFTISADTSKNTAYLQMNSLRAEDTAVYYCARYYEWYKYDLYLGSLGFDYWGQGTLVTVSS VL: DIQMTQSPSSLSASVGDRVTITCRASQSVSSAVAWYQQKPGKAPKLLIYSASSLYSGVPSRFSGSRSGTDFTLTISSLQPEDFATYYCQQGGYSLITFGQGTKVEIK
8 | 5.7 nM | Ab0936 (antibody, V domains shown, also called LS2B R6M2) VH: EVQLVESGGGLVQPGGSLRLSCAASGFDFSSYSIHWVRQAPGKGLEWVAAISPYYGSTYYADSVKGRFTISADTSKNTAYLQMNSLRAEDTAVYYCARYYEWYKYDLYLGSLGFDYWGQGTLVTVSS VL: DIQMTQSPSSLSASVGDRVTITCRASQSVSSAVAWYQQKPGKAPKLLIYSASSLYSGVPSRFSGSRSGTDFTLTISSLQPEDFATYYCQQGGYSLITFGQGTKVEIK

target: T2, Ab0787; assay: BLI 5-pt +indinavir

Row | Kd | Binder
9 | 1 nM | Ab0936 (antibody, V domains shown, also called LS2B R6M2) VH: EVQLVESGGGLVQPGGSLRLSCAASGFDFSSYSIHWVRQAPGKGLEWVAAISPYYGSTYYADSVKGRFTISADTSKNTAYLQMNSLRAEDTAVYYCARYYEWYKYDLYLGSLGFDYWGQGTLVTVSS VL: DIQMTQSPSSLSASVGDRVTITCRASQSVSSAVAWYQQKPGKAPKLLIYSASSLYSGVPSRFSGSRSGTDFTLTISSLQPEDFATYYCQQGGYSLITFGQGTKVEIK
